According to the supplement of paper PMC10126150:
± gives the standard deviation of the averaged measurements.

Test system: ATP
Experiment: switch fluorescence ratio, 500 uM ATP over buffer (Cy3 cluster intensity, sum of 5 cycles each) (fold (ratio)); higher = stronger signal-on switching upon ATP binding; sequences stand for … in TCGTCGGCAGCGTCAGATGTGTATAAGAGACAGTTTTTTTTTTTTTTTTTTTTTTTTT…TC
Conditions: aptamer strand: ATP DNA aptamer (quencher-CACCTGGGGGAGTATTGCGGAGGAAGG + anchor), 100 nM annealed; ATP concentration: 500 uM
How it was run: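 For every switch-domain sequence, the fluorescence ratio is the mean of per-cluster values, each being summed target-cycle Cy3 intensity over summed buffer-cycle Cy3 intensity. Clusters outside 100-1000 RFU were excluded. On a modified Illumina MiSeq flow-cell, the Cy3-labelled switching-strand clusters were annealed to 100 nM quencher-labelled ATP aptamer, imaged in selection buffer and then after 15 min with 500 uM ATP at 22 °C. Five such cycles were run, with NaOH stripping and re-annealing between them.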
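Also: ATP exposure 15 min at 22 °C before imaging.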

Sequence | switch fluorescence ratio
CAGCAGAGGT | 1.02 ± 0.013
CAGCAGATTA | 1.04 ± 0.018
CAGCAGGGGT | 1.24 ± 0.15
CAGCCCAGGT | 4.12 ± 2.7
CAGCGTCCCT | 1.07 ± 0.014
CAGCGTCGT | 1.02 ± 0.025
CAGCGTTCAC | 1.054 ± 0.0092
CAGCTCATGC | 1.0792 ± 0.00059
CAGCTCCCGG | 1.07 ± 0.039
CAGCTTAGGG | 1.01 ± 0.036
CAGCTTGGAT | 0.977 ± 0.013
CAGGAAAACG | 1.03 ± 0.018
CAGGAAATGG | 0.999 ± 0.017
CAGGAACTTT | 0.995 ± 0.0012
CAGGAAGCGG | 1.025 ± 0.0027
CAGGACCCGG | 1.071 ± 0.0084
CAGGAGGAAT | 1.242 ± 0.0098
CAGGAGTGAG | 1.0068 ± 0.00044
CAGGATTGGG | 0.973 ± 0.043
CAGGCGCAGG | 1.06 ± 0.051
CAGGCGCTCT | 1.04 ± 0.054
CAGGCGTCGT | 1.035 ± 0.0023
CAGGCTAAAG | 0.989 ± 0.032
CAGGCTAGGC | 1.02 ± 0.056
CAGGCTGGTC | 0.992 ± 0.053

Sequence | switch fluorescence ratio
CAGGGAGGAC | 1.01 ± 0.013
CAGGGATTAG | 1.01 ± 0.044
CAGGGATTGA | 0.998 ± 0.0049
CAGGGATTTA | 0.978 ± 0.024
CAGGGCCCTG | 0.995 ± 0.056
CAGGGGAAAC | 1.02 ± 0.077
CAGGGGCGAC | 1.02 ± 0.049
CAGGGGCTTA | 1 ± 0.038
CAGGGGCTTT | 1.04 ± 0.0067
CAGGGGGATA | 1.3 ± 0.43
CAGGGGGATG | 1.01 ± 0.032
CAGGGGGCCG | 1.01 ± 0.078
CAGGGGGCGA | 1.06 ± 0.07
CAGGGGGCTT | 1.03 ± 0.054
CAGGGGGGCG | 1.04 ± 0.088
CAGGGGTAAA | 1.01 ± 0.019
CAGGGGTAGG | 1.09 ± 0.044
CAGGGGTCTG | 0.997 ± 0.038
CAGGGGTGGT | 1.01 ± 0.039
CAGGGGTTTG | 1 ± 0.051
CAGGGTAGTG | 1.01 ± 0.045
CAGGGTGCTA | 1 ± 0.075
CAGGGTGGTT | 1.03 ± 0.028
CAGGGTTGGC | 1.03 ± 0.012
CAGGTAGGCG | 0.984 ± 0.016

Sequence | switch fluorescence ratio
CAGGTAGGGG | 0.9507 ± 0.0065
CAGGTAGTGT | 1.02 ± 0.024
CAGGTAGTTG | 1.004 ± 0.0032
CAGGTATAGG | 0.9864 ± 0.0054
CAGGTCAGGG | 0.998 ± 0.014
CAGGTCAGGT | 1.01 ± 0.045
CAGGTCGCGG | 1.005 ± 0.006
CAGGTCTTAT | 1.01 ± 0.028
CAGGTCTTGC | 1 ± 0.015
CAGGTGAGAA | 1.16 ± 0.026
CAGGTGAGTT | 1.34 ± 0.32
CAGGTGATAC | 2.42 ± 0.29
CAGGTGGGGG | 1.01 ± 0.033
CAGGTGGTGT | 1.11 ± 0.066
CAGGTTAATT | 1.02 ± 0.044
CAGGTTCACG | 1.02 ± 0.032
CAGGTTGAAC | 0.9866 ± 0.0021
CAGGTTGTGT | 0.99 ± 0.031
CAGGTTTCTA | 1 ± 0.043
CAGGTTTGG | 0.982 ± 0.014
CAGTAAAAGG | 1.01 ± 0.028
CAGTAAAGGA | 1.02 ± 0.053
CAGTAATTGA | 1 ± 0.026
CAGTACGCGT | 1.04 ± 0.017
CAGTAGAAAG | 1.01 ± 0.0081

Sequence | switch fluorescence ratio
CAGTAGCGGT | 1.97 ± 0.35
CAGTAGGGCA | 0.982 ± 0.041
CAGTATTTTG | 0.9952 ± 0.0031
CAGTCCGGGC | 0.991 ± 0.028
CAGTCGACTG | 1.01 ± 0.019
CAGTCGCCAG | 1.02 ± 0.0024
CAGTGAATGT | 0.976 ± 0.039
CAGTGATGAG | 1.03 ± 0.012
CAGTGATTAT | 1.01 ± 0.018
CAGTGCCTGT | 1.01 ± 0.034
CAGTGCGCTA | 1.15 ± 0.02
CAGTGGCGTC | 1.05 ± 0.02
CAGTGGGACT | 0.974 ± 0.024
CAGTGGGCGG | 1.06 ± 0.07
CAGTGGGCGT | 1.04 ± 0.026
CAGTGGGTGG | 0.982 ± 0.027
CAGTGGGTTT | 0.97 ± 0.032
CAGTGGTACG | 1.02 ± 0.065
CAGTGGTTGG | 1.01 ± 0.013
CAGTGTGAGC | 1.01 ± 0.039
CAGTTAATTG | 1.03 ± 0.013
CAGTTACGGT | 1.003 ± 0.0068
CAGTTAGATA | 1.02 ± 0.031
CAGTTAGCAT | 1.101 ± 0.0097
CAGTTATGTT | 0.993 ± 0.036

Sequence | switch fluorescence ratio
CAGTTCATTA | 0.9976 ± 0.0031
CAGTTCGGCC | 1.01 ± 0.024
CAGTTGCCAG | 0.953 ± 0.019
CAGTTGGACG | 1.04 ± 0.11
CAGTTGTGGG | 0.9802 ± 0.0066
CAGTTGTTGC | 0.984 ± 0.023
CAGTTTGATG | 1.003 ± 0.0083
CAGTTTGGGG | 0.982 ± 0.019
CAGTTTGTTT | 0.9881 ± 0.0031
CAGTTTTTAT | 1.01 ± 0.026
CAGTTTTTTA | 0.983 ± 0.016
CATAAGATGT | 1 ± 0.021
CATAAGGTTG | 0.991 ± 0.017
CATAATTAGT | 0.994 ± 0.018
CATAATTGCT | 1.01 ± 0.0059
CATAATTTTA | 1.007 ± 0.01
CATACGGGGT | 1.01 ± 0.032
CATAGCGTTA | 1.03 ± 0.011
CATAGGAAGG | 0.987 ± 0.013
CATAGGGGGG | 0.988 ± 0.015
CATAGGGTGA | 1.01 ± 0.026
CATAGGTAGT | 0.981 ± 0.016
CATAGGTTTT | 1.03 ± 0.066
CATAGTAGAA | 0.978 ± 0.034
CATAGTATGG | 0.9706 ± 0.0029

Sequence | switch fluorescence ratio
CATAGTGCTT | 0.9715 ± 0.0043
CATATAGCAC | 1.18 ± 0.019
CATATAGGGT | 0.976 ± 0.038
CATATAGTTC | 0.984 ± 0.03
CATATGACGG | 0.986 ± 0.038
CATATGGTTG | 0.99 ± 0.018
CATATGTAGA | 0.997 ± 0.023
CATCAGGCGG | 1.02 ± 0.015
CATCAGGTTT | 0.991 ± 0.0015
CATCGAATGC | 1.23 ± 0.12
CATCGCATCT | 1.79 ± 0.056
CATCGCGGTT | 1.07 ± 0.022
CATCGGGACG | 1.04 ± 0.053
CATCGGGGGT | 1.29 ± 0.67
CATCGGTAGA | 1.02 ± 0.017
CATCTATCCG | 0.963 ± 0.012
CATCTCTTGC | 1.07 ± 0.036
CATCTGGGGG | 1.04 ± 0.054
CATCTGTTGT | 0.9856 ± 0.0092
CATGAAAAAT | 1 ± 0.011
CATGAAGATG | 0.98 ± 0.012
CATGAATAG | 0.994 ± 0.011
CATGAATATG | 1.01 ± 0.03
CATGAATATT | 0.99 ± 0.037
CATGACCTTT | 1.04 ± 0.016

Sequence | switch fluorescence ratio
CATGAGAAGA | 0.999 ± 0.029
CATGAGACCG | 1.03 ± 0.016
CATGAGGAGT | 1.01 ± 0.0022
CATGATGAGC | 0.9668 ± 0.0079
CATGATTATG | 0.972 ± 0.012
CATGATTTGG | 0.982 ± 0.028
CATGCAAATA | 1.07 ± 0.034
CATGCATTTT | 1.09 ± 0.079
CATGCGAATA | 1.1 ± 0.033
CATGCGCGGA | 1.147 ± 0.0013
CATGCGCTTC | 2.39 ± 0.12
CATGCTGGGT | 1.0358 ± 0.001
CATGCTTGGG | 0.999 ± 0.012
CATGCTTTTG | 1.013 ± 0.0021
CATGGAACCT | 1.92 ± 0.11
CATGGATAGC | 0.963 ± 0.012
CATGGATGGC | 1.06 ± 0.03
CATGGGCTGG | 0.9965 ± 0.001
CATGGGGGCT | 0.964 ± 0.024
CATGGGGGTT | 0.991 ± 0.025
CATGGGGTGC | 1.04 ± 0.024
CATGGTATGT | 1.01 ± 0.038
CATGGTGAGC | 0.956 ± 0.041
CATGTAAGGG | 1.003 ± 0.0053
CATGTACGTG | 1.0359 ± 9.4e-05

Sequence | switch fluorescence ratio
CATGTAGAGG | 0.976 ± 0.033
CATGTATGTT | 1.01 ± 0.012
CATGTATTGA | 0.964 ± 0.024
CATGTCTCTC | 1.02 ± 0.032
CATGTTACGG | 1.055 ± 0.0065
CATGTTGTAT | 0.98166 ± 0.00075
CATTAAGCTG | 1 ± 0.12
CATTAATTGT | 1.025 ± 0.0034
CATTACAGGG | 1.01 ± 0.023
CATTACCGAG | 1.049 ± 0.0037
CATTAGAATC | 0.997 ± 0.028
CATTAGGTCT | 0.981 ± 0.038
CATTATAGGC | 1.004 ± 0.002
CATTATCATT | 0.97 ± 0.018
CATTATTATT | 0.9975 ± 0.0058
CATTCCGTTC | 1.42 ± 0.017
CATTCGAATA | 1.08 ± 0.037
CATTCGTCGA | 1.2 ± 0.04
CATTCGTTGA | 1.05 ± 0.08
CATTCGTTTG | 0.96 ± 0.0097
CATTCTGATC | 1 ± 0.056
CATTGAATGG | 1 ± 0.015
CATTGATGAA | 0.988 ± 0.06
CATTGTAAGT | 1 ± 0.025
CATTTAGACG | 1.01 ± 0.11
